We go through 3 molecules from US20140193400A1 (ESBATECH AN ALCON BIOMEDICAL RESEARCH UNIT, published 2014).

Experiment [1] concerns the target T1, recombinant human TNFalpha (human, UniProt P01375 77-233). In words: cell-based or functional assay.
Experiment [2] has as its target T1, recombinant human TNFalpha. In words: cell-based or functional assay. The source holds these as a separate data set.
Experiment [3] deals with T1, recombinant human TNFalpha. The experiment can be described thus: cell-based or functional assay. This is another data set of the same source.
Experiment [4] addresses T1, recombinant human TNFalpha. In words: cell-based or functional assay. This is another data set of the same source.
Experiment [5] addresses T1, recombinant human TNFalpha. The experiment can be described thus: cell-based or functional assay. This is another data set of the same source.
Experiment [6] addresses T2, Human TNFa N-his trimers (His-tagged TNF, produced at ESBATech) (human, UniProt P01375 77-233).
T2 construct: Captured as trimers on a Ni-NTA sensor chip by the N-terminal His tags in the Biacore assay of the general methods; also called human TNFα; human TNF alpha; not shown: N-terminal His tag
In words: SPR (BIAcore T100), His-tagged human TNF captured on NTA chip, scFv as analyte. How it is done:
(§1) For binding affinity measurements at pH5 and pH 7.4 (data not shown), surface Plasmon resonance measurements with BIAcore™-T 100 were employed using a NTA sensor chip and His-tagged TNF (produced at ESBATech). The surface of the NTA sensor chip consists of a carboxymethylated dextran matrix pre-immobilized with nitrilotriacetic acid (NTA) for capture of histidine tagged molecules via Ni2+NTA chelation. Human TNFa N-his trimers (5 nM) are captured by the nickel via their N-terminal his-tags and ESBA105 (analyte) is injected at several concentrations ranging from 30 nM to 0.014 nM in 3 fold serial dilution steps. At the regeneration step, the complex formed by nickel, ligand and analyte is washed away. This allows the use of the same regeneration conditions for different samples. The response signal is generated by surface Plasmon resonance (SPR) technology and measured in resonance units (RU). All the measurements are performed at 25° C. Sensorgrams were generated for each anti-TNF scFv sample after in-line reference cell correction followed by buffer sample subtraction. The apparent dissociation rate constant (kd), the apparent association rate constant (kₐ) and the apparent dissociation equilibrium constant (KD) were calculated using one-to-one Langmuir binding model with BIAcore T100 evaluation Software version 1.1.
For orientation: Surface plasmon resonance follows binding to a sensor surface in real time, without labels.

Experiment [7] has as its target T2, Human TNFa N-his trimers (His-tagged …). In words: SPR (BIAcore), His-tagged human TNF captured on NTA chip, scFv as analyte; units taken from paragraph 184. The method, then: as §1
Experiment [8] addresses T1, recombinant human TNFalpha. In words: secretion ELISA on TNFα, bacterial culture supernatant not normalised for single-chain antibody content.

Where two headings read alike, the source gives them in different places.

T1 sequence (P01375 77-233 limits assumed): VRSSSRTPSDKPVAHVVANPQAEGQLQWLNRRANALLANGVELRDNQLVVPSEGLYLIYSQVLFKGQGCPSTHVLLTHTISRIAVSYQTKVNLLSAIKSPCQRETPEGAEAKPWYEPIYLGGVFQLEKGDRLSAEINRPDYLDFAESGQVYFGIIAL
T2 sequence (P01375 77-233 limits assumed): as above

With Adalimumab (antibody), in experiment [1], the IC50, block of cytotoxic activity (murine L929 cells, 1000 pg/ml TNF) came to 8.46 ng/mL. In experiment [2], the IC50, block of cytotoxic activity (human Kym-1 cells, 10 pg/ml TNF) was 66.2 ng/mL and the IC50, block of cytotoxic activity (murine L929 cells, 1000 pg/ml TNF) is 8.45 ng/mL.

B1: EP43_max (scFv)
scFv: EIVMTQSPSTLSASVGDRVIIKCQASQSISDWLAWYQQKPGKAPKLLIYGASRLASGFPSRFSGSGSGAEFTLTISGLEPADFATYYCQQGWSDSYVDNLFGQGTKLTVLGGGGGSGGGGSGGGGSGGGGSEVQLVESGGGLVQPGGSLRLSCTVSGFSLSSGAMSWVRQAPGKGLEWVGVIISSGATYYASWAKGRFTISKDTSKNTVYLQMNSLRAEDTAVYYCARGGPDDSNSMGTFDPWGQGTLVTVSS
notes: scFv NH2-VL-(GGGGS)4-VH-COOH; also called 676
For orientation: Kd means the constant that tells how readily two partners part at equilibrium. A low value points to a tighter complex. Usually koff stands for the first-order rate constant of dissociation. Read a high koff as a short-lived complex. By kon is commonly meant a measure of how fast the partners come together. Low readings indicate slow association, high ones fast association. Take B1: the “EC50, L929 potency assay” value in experiment [3] came to 1 ng/mL. In addition, the “L929* [EC50-E105/EC50-X], potency relative to ESBA105” value in experiment [4] was 6.4 ratio EC50 ESBA105/EC50 X (mass units, ng/ml). In addition, in experiment [5], the “L929* [EC50-E105/EC50-X], potency relative to ESBA105” value is 6.4 ratio EC50 ESBA105/EC50 X (mass units, ng/ml). In experiment [6], the Kd stood at 0.251 nM, the koff is 4.48e-05 s⁻¹ and the kon came to 178000 M⁻¹ s⁻¹. In experiment [7], this molecule came in with a Kd of 0.249 nM, a koff of 5.68e-05 s⁻¹ and a kon of 228000 M⁻¹ s⁻¹.

B2: 34min (scFv)
scFv (VL-linker-VH): EIVMTQSPSTLSASVGDRVIITCQSSQSVYGNIWMAWYQQKPGKAPKLLIYQASKLASGVPSRFSGSGSGAEFTLTISSLQPDDFATYYCQGNFNTGDRYAFGQGTKLTVLGGGGGSGGGGSGGGGSGGGGSEVQLVESGGGLVQPGGSLRLSCAASGFTISRSYWICWVRQAPGKGLEWVSCIYGDNDITPLYANWAKGRFTISRDNSKNTLYLQMNSLRAEDTAVYYCAKLGYADYAYDLWGQGTLVTVSS
notes: also called EP34min; EP34_min
On to B2, for which the binding result in experiment [8] is on record as “binds”.
